Laboratory results published in patent US20240360208A1 (Hoffmann-La Roche, published 2024).

Key:
[1] = biological target: T1, human FcγRIIb receptor on CHO-K1 cells (clone 223) (human, UniProt P31994 43-310); assay: cell-based or functional assay
T1 sequence (looked up): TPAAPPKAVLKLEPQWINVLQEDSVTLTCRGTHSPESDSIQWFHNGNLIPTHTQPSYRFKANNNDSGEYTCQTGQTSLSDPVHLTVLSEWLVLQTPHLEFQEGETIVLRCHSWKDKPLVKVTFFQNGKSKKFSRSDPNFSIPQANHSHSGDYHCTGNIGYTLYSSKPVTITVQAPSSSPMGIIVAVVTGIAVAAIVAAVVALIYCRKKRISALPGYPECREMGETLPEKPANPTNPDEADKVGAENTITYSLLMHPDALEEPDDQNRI

[2] = biological target: human CCL2 (MCP1) - wild type (wt) (human, UniProt P13500 24-99); assay: cell-based or functional assay
[3] = biological target: T2, human FcγRIIa on CHO-K1 cells (clone 138) (human, UniProt P12318 34-317); assay: cell-based or functional assay
T2 sequence (looked up): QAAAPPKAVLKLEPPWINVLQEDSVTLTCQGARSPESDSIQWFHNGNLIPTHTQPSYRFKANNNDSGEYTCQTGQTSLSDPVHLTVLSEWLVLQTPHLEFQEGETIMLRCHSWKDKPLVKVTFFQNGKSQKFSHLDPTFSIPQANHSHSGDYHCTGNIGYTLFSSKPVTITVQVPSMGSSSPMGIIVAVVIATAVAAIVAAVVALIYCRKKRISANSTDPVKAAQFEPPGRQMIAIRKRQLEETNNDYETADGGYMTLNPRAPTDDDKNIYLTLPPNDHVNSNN

[4] = biological target: T1, human FcγRIIb receptor on CHO-K1 cells …; assay: cell-based or functional assay; remark: listed apart in the source
[5] = biological target: T3, human CCL2 (MCP1) - P8A variant (human, UniProt P13500 24-99); assay: SPR T200, 37 C, anti-human Fc capture, 1:1 model, pH 5.8
T3 construct: In-house point mutant that cannot dimerise; also called monomeric human CCL2; monomeric CCL2
Experimental: (§1) Anti-human Fc (GE Healthcare) was immobilized on each flow cells of a CM4 sensor chip using amine coupling kit (GE Healthcare) according to the recommended settings by the manufacturer. Antibodies and analytes were diluted into ACES pH 7.4 or pH 5.8 buffer (20 mM ACES, 150 mM NaCl, 1 mg/ml BSA, 0.05% Tween 20, 0.005% NaN3). […] Sensor surface was regenerated each cycle with 3M MgCl2.

[6] = biological target: T3, human CCL2 (MCP1) - P8A variant; assay: SPR T200, 37 C
Experimental: as §1

[7] = biological target: T3, human CCL2 (MCP1) - P8A variant; assay: SPR T200, 37 C, anti-human Fc capture, 1:1 model, pH 7.4
Experimental: as §1

[8] = biological target: T4, human CCL8 (MCP2) - P8A variant (human, UniProt P80075 24-99); assay: SPR T200, 37 C, anti-human Fc capture, 1:1 model, pH 7.4; pH 7.4
T4 construct: Proline 8 of mature CCL8 (NP_005614.2) mutated to alanine; also called monomeric human CCL8; CCL8 P8A variant (monomer)
T4 chain: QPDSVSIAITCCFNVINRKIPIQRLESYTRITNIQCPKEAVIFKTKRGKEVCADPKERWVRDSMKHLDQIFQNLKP
Experimental: as §1

[9] = biological target: T3, human CCL2 (MCP1) - P8A variant; assay: SPR (Biacore T200), 37 °C, ACES pH 7.4; antibody captured on anti-human Fc, monomeric human CCL2 at 8 nM; response normalised to capture level
Experimental: as §1

B1: CKLO2-GG03/GG04 (=P1AF8140) (bispecific antibody)
heavy 1: DIQMTQSPSSLSASVGDRVTITCKAFEDIYNRRAWYQQKPGKAPKLLIHGATSLEHGVPSRFSGSGSGTDYTLTISSLQPEDFATYYCQQFWSAPYTFGGGTKVEIKSSASTKGPSVFPLAPSSKSTSGGTAALGCLVKDYFPEPVTVSWNSGALTSGVHTFPAVLQSSGLYSLSSVVTVPSSSLGTQTYICNVNHKPSNTKVDKKVEPKSCDKTHTCPPCPAPEYLGGDSVFLFPPKPKDVLMISRTPEVTCVVIDVSHEDPEVKFNWYVDGVEVHNAKTKPREEQYNSTYRVVSVLPVLHRDWLNGKEYKCKVSNKALPKPIEKTISKAKGQRREPQVYTLPPCREEMTKNQVSLWCLVKGFYPSDIAVEWESNGQPENNYKTTPPVLDSDGSFFLYSKLTVDKSRWQQGNVFSCSVMHEALHAHYTRKELSLSP
heavy 2: not shown
light 1: QVQLVQSGAEVKKPGSSVKVSCKASGLTISHTYMHWVRQAPGQGLEWMGRIDPDNHNTKFDPKFQGRVTITADTSTSTAYMELSSLRSEDTAVYYCARGVFGFFEHWGQGTTVTVSSASVAAPSVFIFPPSDEQLKSGTASVVCLLNNFYPREAKVQWKVDNALQSGNSQESVTEQDSKDSTYSLSSTLTLSKADYEKHKVYACEVTHQGLSSPVTKSFNRGEC
light 2: EIVLTQSPATLSLSPGERATLSCRASQHVSDAYLAWYQQKPGQAPRLLIYDASDRAEGVPARFSGSGSGTDFTLTISSLEPEDFAVYYCHQYIHLHSFTFGQGTKVEIKRTVAAPSVFIFPPSDRKLKSGTASVVCLLNNFYPREAKVQWKVDNALQSGNSQESVTEQDSKDSTYSLSSTLTLSKADYEKHKVYACEVTHQGLSSPVTKSFNRGEC
EC50 (read off the curve) of the depletion of CCL2 from the supernatant of FcγRIIb CHO cells [1]: ~1 nM | IC50, inhibition of THP-1 migration (chemotaxis assay) [2]: 0.3 µg/mL

B2: P1AF8142 (CKLO2-CB-SG1095) (bispecific antibody)
chain 1: not shown
chain 2: QVQLVQSGAEVKKPGSSVKVSCKASGLTISHTYMHWVRQAPGQGLEWMGRIDPDNHNTKFDPKFQGRVTITADTSTSTAYMELSSLRSEDTAVYYCARGVFGFFEHWGQGTTVTVSSASTKGPSVFPLAPSSKSTSGGTAALGCLVKDYFPEPVTVSWNSGALTSGVHTFPAVLQSSGLYSLSSVVTVPSSSLGTQTYICNVNHKPSNTKVDKKVEPKSCGGSGGGGSGGDKTHTCPPCPAPELWNGPSVFLFPPKPKDTLMISRTPEVTCVVVDVSDEDPEVKFNWYVDGVEVHNAKTKPREELYNSTYRVVSVLTVLHRDWLNGKEYKCKVSNTALPKPIEKTISKAKGQRREPQVYTLPPCRDELTKNQVSLWCLVKGFYPSDIAVEWESNGQPENNYKTTPPVLDSDGSFFLYSKLTVDKSRWQQGNVFSCSVMHEALHAHYTRKELSLSPGKGGSGGGGSGGDIQMTQSPSSLSASVGDRVTITCKAFEDIYNRRAWYQQKPGKAPKLLIHGATSLEHGVPSRFSGSGSGTDYTLTISSLQPEDFATYYCQQFWSAPYTFGGGTKVEIKRTVAAPSVFIFPPSDEQLKSGTASVVCLLNNFYPREAKVQWKVDNALQSGNSQESVTEQDSKDSTYSLSSTLTLSKADYEKHKVYACEVTHQGLSSPVTKSFNRGEC
EC50 (read off the curve) of the depletion of CCL2 from the supernatant of FcγRIIa CHO cells [3]: ~0.1 nM | IC50, inhibition of THP-1 migration (chemotaxis assay) [2]: 0.2 µg/mL | Depletion level max (%) of CCL2 from the supernatant [4]: 80% | EC50 [nM] of CCL2 depletion [4]: 0.13 nM | EC90 [nM] of CCL2 depletion [4]: 0.5 nM

B3: CKLO03 (IgG1 wild type) (bispecific antibody, V domains shown)
VH 1: QVQLVQSGAEVKKPGSSVKVSCKASGLTISHTYMHWVRQAPGQGLEWMGRIDPDNHNTKFDPKFQGRVTITADTSTSTAYMELSSLRSEDTAVYYCARGVFGFFDHWGQGTTVTVSS
VL 1: DIQMTQSPSSLSASVGDRVTITCKATEDIYNRLAWYQQKPGKAPKLLIHGATSLEHGVPSRFSGSGSGTDYTLTISSLQPEDFATYYCQQFRSAPYTFGGGTKVEIK
VH 2: QVQLVQSGAEVKKPGSSVKVSCKASGGTFSHYGISWVRQAPGQGLEWMGGVIPIFHTANYAQKFQGRVTITADESTSTAYMELSSLRSEDTAVYYCARYDAHYGELDFWGQGTLVTVSS
VL 2: EIVLTQSPATLSLSPGERATLSCRASQHVSDAYLAWYQQKPGQAPRLLIYDASDRAEGVPARFSGSGSGTDFTLTISSLEPEDFAVYYCHQYIHLHSFTFGQGTKVEIK
notes: CrossMab, IgG1 wild type with knobs-into-holes; also called CKLO3; 11K2H1503/11K2L1201//CNTO888H0695/CNTO888L0616
Kd [5]: 21.7 nM | fold weaker KD at pH 5.8 than at pH 7.4 [6]: > 1000 fold | Kd [7]: 0.00685 nM

B4: CKLO01 (IgG1 wild type) (bispecific antibody, V domains shown)
VH 1: QVQLVQSGAEVKKPGSSVKVSCKASGLTISHTYMHWVRQAPGQGLEWMGRIDPDNHNTKFDPKFQGRVTITADTSTSTAYMELSSLRSEDTAVYYCARGVFGFFDHWGQGTTVTVSS
VL 1: DIQMTQSPSSLSASVGDRVTITCKAFEDIYNRRAWYQQKPGKAPKLLIHGATSLEHGVPSRFSGSGSGTDYTLTISSLQPEDFATYYCQQFWSAPYTFGGGTKVEIK
VH 2: QVQLVQSGAEVKKPGSSVKVSCKASGGTFSHYGISWVRQAPGQGLEWMGGVIPIFHTANYAQKFQGRVTITADESTSTAYMELSSLRSEDTAVYYCARYDAHYGELDFWGQGTLVTVSS
VL 2: EIVLTQSPATLSLSPGERATLSCRASQHVSDAYLAWYQQKPGQAPRLLIYDASDRAEGVPARFSGSGSGTDFTLTISSLEPEDFAVYYCHQYIHLHSFTFGQGTKVEIK
notes: also called CKLO1; 11K2H1503/11K2L1338//CNTO888H0695/CNTO888L0616
Kd [8]: 23.3 nM

B5: CKLO04 (IgG1 wild type) (bispecific antibody, V domains shown)
VH 1: QVQLVQSGAEVKKPGSSVKVSCKASGLTISHTYMHWVRQAPGQGLEWMGRIDPDNHNTKFDPKFQGRVTITADTSTSTAYMELSSLRSEDTAVYYCARGVFGFFDHWGQGTTVTVSS
VL 1: DIQMTQSPSSLSASVGDRVTITCKATEDIYNRLAWYQQKPGKAPKLLIHGATSLEHGVPSRFSGSGSGTDYTLTISSLQPEDFATYYCQQFRSAPYTFGGGTKVEIK
VH 2: QVQLVQSGAEVKKPGSSVKVSCKASGGTFSHYGISWVRQAPGQGLEWMGGIIHIFHTANYAQKFQGRVTITADESTSTAYMELSSLRSEDTAVYYCARYDAHYGELDFWGQGTLVTVSS
VL 2: EIVLTQSPATLSLSPGERATLSCRASQHVSDAYLAWYQQKPGQAPRLLIYDASDRAEGVPARFSGSGSGTDFTLTISSLEPEDFAVYYCHQYIHLHSFTFGQGTKVEIK
notes: CrossMab, IgG1 wild type with knobs-into-holes; also called CKLO4; 11K2H1503/11K2L1201//CNTO888H0625/CNTO888L0616
binding result [9]: binds
